Data: US20170188835

Target: iTEV(+) 3.0, infrared fluorescent Tobacco Etch Virus (TEV) protease sensor

B1: Tobacco Etch Virus (TEV) protease (protein)
chain: GESLFKGPRDYNPISSTICHLTNESDGHTTSLYGIGFGPFIITNKHLFRRNNGTLLVQSLHGVFKVKNTTTLQQHLIDGRDMIIIRMPKDFPPFPQKLKFREPQREERICLVTTNFQTKSMSSMVSDTSCTFPSSDGIFWKHWIQTKDGQCGSPLVSTRDGFIVGIHSASNFTNTNNYFTSVPKNFMELLTNQEAQQWVSGWRLNADSVLWGGHKVFMSKPEEPFQPVKEATQLMNELVYSQ
Question: How did the “gel electrophoresis with Coomassie blue staining (cleavage of the sensor)” value turn out when B1 was run?
Answer: Two bands revealed by Coomassie blue staining correspond to N and C half of the sensor with the expected molecular weight
